Data: article PMC10397247
Blank lines part the entries; values can stand above or below the binder they belong to.

Key:
[1] = biological target: T1, 4H3961-bA; experiment: two-hybrid library CCNG1;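 note: natural log of median RNA to DNA barcode read ratio; higher means stronger binding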
T1 chain: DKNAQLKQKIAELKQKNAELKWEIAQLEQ

[2] = biological target: T2, 4H2568-bA; experiment: two-hybrid library CCNG1;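 note: natural log of median RNA to DNA barcode read ratio; higher means stronger binding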
T2 chain: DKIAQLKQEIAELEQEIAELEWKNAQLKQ

[3] = biological target: T3, 4H470-bA; experiment: two-hybrid library CCNG1;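 note: natural log of median RNA to DNA barcode read ratio; higher means stronger binding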
T3 chain: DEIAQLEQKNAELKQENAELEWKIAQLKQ

[4] = biological target: T4, 4H2745-bA; experiment: two-hybrid library CCNG1;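 note: natural log of median RNA to DNA barcode read ratio; higher means stronger binding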
T4 chain: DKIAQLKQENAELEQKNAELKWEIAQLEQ

[5] = biological target: T5, 4H2619-bA; experiment: two-hybrid library CCNG1;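 note: natural log of median RNA to DNA barcode read ratio; higher means stronger binding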
T5 chain: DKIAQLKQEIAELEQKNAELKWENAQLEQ

[6] = biological target: T6, 4H344-bA; experiment: two-hybrid library CCNG1;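 note: natural log of median RNA to DNA barcode read ratio; higher means stronger binding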
T6 chain: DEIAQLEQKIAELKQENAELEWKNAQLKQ

[7] = biological target: T7, 4H363-bA; experiment: two-hybrid library CCNG1
T7 chain: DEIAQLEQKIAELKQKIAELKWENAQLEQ

[8] = biological target: T8, 4H3907-bA; experiment: two-hybrid library CCNG1
T8 chain: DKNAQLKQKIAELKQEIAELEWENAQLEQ

[9] = biological target: T9, P12-AA; experiment: two-hybrid library CCmax; conditions: mean of both orientations
T9 chain: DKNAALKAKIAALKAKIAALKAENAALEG

[10] = biological target: T10, P4-AA; experiment: two-hybrid library CCmax; conditions: mean of both orientations
T10 chain: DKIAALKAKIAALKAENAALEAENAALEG

[11] = biological target: T11, O14-AA; experiment: two-hybrid library CCmax; conditions: mean of both orientations
T11 chain: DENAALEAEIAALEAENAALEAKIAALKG

[12] = biological target: T12, 4H_APH; experiment: two-hybrid library CCmax
T12 chain: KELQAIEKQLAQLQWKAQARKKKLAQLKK

[13] = biological target: T13, 4H_BCR; experiment: two-hybrid library CCmax; conditions: mean of both orientations
T13 chain: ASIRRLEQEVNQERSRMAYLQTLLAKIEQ

[14] = biological target: T14, P7-AA; experiment: two-hybrid library CCmax
T14 chain: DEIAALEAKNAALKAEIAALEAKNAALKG

[15] = biological target: T15, 4H_APH3; experiment: two-hybrid library CCmax
T15 chain: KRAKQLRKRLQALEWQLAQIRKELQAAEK

[16] = biological target: T16, P11-AA; experiment: two-hybrid library CCmax; conditions: mean of both orientations
T16 chain: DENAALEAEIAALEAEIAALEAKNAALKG

[17] = biological target: T17, AP5-AA; experiment: two-hybrid library CCmax; conditions: mean of both orientations
T17 chain: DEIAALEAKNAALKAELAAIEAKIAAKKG

[18] = biological target: T18, P10-AA; experiment: two-hybrid library CCmax; conditions: mean of both orientations
T18 chain: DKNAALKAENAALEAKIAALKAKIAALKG

[19] = biological target: T19, zCON9_D; experiment: two-hybrid library CCmax
T19 chain: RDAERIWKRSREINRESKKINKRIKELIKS

[20] = biological target: T20, P1-AA; experiment: two-hybrid library CCmax; conditions: mean of both orientations
T20 chain: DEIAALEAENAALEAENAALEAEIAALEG

[21] = biological target: T21, P8-AA; experiment: two-hybrid library CCmax; conditions: mean of both orientations
T21 chain: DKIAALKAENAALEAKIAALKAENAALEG

[22] = biological target: T22, P2-AA; experiment: two-hybrid library CCmax
T22 chain: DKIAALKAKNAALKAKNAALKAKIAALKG

[23] = biological target: T23, O11-AA; experiment: two-hybrid library CCmax; conditions: mean of both orientations
T23 chain: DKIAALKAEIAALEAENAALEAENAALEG

[24] = biological target: T24, zCON9_B; experiment: two-hybrid library CCmax; conditions: mean of both orientations
T24 chain: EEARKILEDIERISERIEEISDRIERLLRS

[25] = biological target: T25, P9-AA; experiment: two-hybrid library CCmax
T25 chain: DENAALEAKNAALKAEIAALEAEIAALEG

[26] = biological target: T26, zCON9_A; experiment: two-hybrid library CCmax
T26 chain: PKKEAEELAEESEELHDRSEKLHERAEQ

[27] = biological target: T27, P3-AA; experiment: two-hybrid library CCmax
T27 chain: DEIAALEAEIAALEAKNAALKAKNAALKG

[28] = biological target: T28, AP7-AA; experiment: two-hybrid library CCmax; conditions: mean of both orientations
T28 chain: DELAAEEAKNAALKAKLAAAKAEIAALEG

[29] = biological target: T29, AP2-AA; experiment: two-hybrid library CCmax
T29 chain: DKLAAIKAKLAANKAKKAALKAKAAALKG

[30] = biological target: T30, AP8-AA; experiment: two-hybrid library CCmax; conditions: mean of both orientations
T30 chain: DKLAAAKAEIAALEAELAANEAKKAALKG

[31] = biological target: GCN2_T; experiment: two-hybrid library CCmax
[32] = biological target: T31, AP6-AA; experiment: two-hybrid library CCmax; conditions: mean of both orientations
T31 chain: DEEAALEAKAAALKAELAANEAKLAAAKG

[33] = biological target: T32, AP3-AA; experiment: two-hybrid library CCmax
T32 chain: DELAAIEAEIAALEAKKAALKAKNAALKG

[34] = biological target: T33, O13-AA; experiment: two-hybrid library CCmax; conditions: mean of both orientations
T33 chain: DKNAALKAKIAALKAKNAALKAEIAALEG

[35] = biological target: 4H_GCN4; experiment: two-hybrid library CCmax
[36] = biological target: T34, AP4-AA; experiment: two-hybrid library CCmax; conditions: mean of both orientations
T34 chain: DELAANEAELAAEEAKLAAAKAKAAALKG

[37] = biological target: T35, AP1-AA; experiment: two-hybrid library CCmax
T35 chain: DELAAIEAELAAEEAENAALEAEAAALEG

4H_GCN4, sequence (chain, as listed by the source): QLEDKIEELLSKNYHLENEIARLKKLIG

interaction score [1]: 2.32
interaction score [2]: 1.94
interaction score [3]: -0.973
interaction score [4]: -0.347
interaction score [5]: 0.254
interaction score [6]: 0.491
interaction score [7]: 0.53
interaction score [8]: 1.89
Binder: DKIAQLKQEIAELEQEIAELEWKNAQLKQ [4H2568-bA]

interaction score [9]: -1.3
interaction score [10]: -1.9
interaction score [11]: -1.65
interaction score [12]: -2.1
interaction score [13]: -1.64
interaction score [14]: -1.87
interaction score [15]: -1.54
interaction score [16]: -1.03
interaction score [17]: -2.21
interaction score [18]: -1.47
interaction score [19]: -1.96
interaction score [20]: -2.11
interaction score [21]: -1.89
interaction score [22]: -1.82
interaction score [23]: -1.39
interaction score [24]: -2.09
interaction score [25]: -1.86
interaction score [26]: -1.26
interaction score [27]: -0.728
interaction score [28]: -2.03
interaction score [29]: -1.63
interaction score [30]: -1.48
interaction score [31]: -2.07
interaction score [32]: -2.09
interaction score [33]: -1.35
interaction score [34]: -1.81
interaction score [35]: -2.22
interaction score [36]: -1.31
interaction score [37]: -1.47
Binder: KELQAIEKQLAQLQWKAQARKKKLAQLKK [4H_APH]
